These results are taken from PMC3340421 (Biochemistry, 2009).

The conditions of series [1]: cited from earlier work.
A short description of series [2]: time-resolved emission of free [Re]-peptides. Type of series: physicochemical. The note with it: free peptide.
For series [3] the following is noted: MP-FRaP.
Another series concerns the target α2 (Escherichia coli, UniProt P00452). Put plainly: peptide binding to α2 by steady-state emission titration. Also on record: species or system E. coli. The note with it: 5 μM peptide, α2 0→65 μM, pH 7.5.
The conditions of series [4]: [Re^II(bpy•−)]* couple; cited from earlier work.
Series [5] deals with Ac-Y-βC19 peptide C-terminal 19-residue peptide (Escherichia coli) (UniProt P69924). The note with it: cited from earlier work.
Series [6] has as its target [Re]-Y-βC19 peptide (C-terminal tail of beta2) 356-375 (Escherichia coli, UniProt P69924, Re(bpy)(CO)3CN appended at N-terminus of peptide). Put plainly: steady-state emission titration.
The nature of series [7]: α2 radius by DLS or crystal structure and Einstein-Stokes diffusion coefficient. Particulars: for diffusion coefficient kd2: Einstein-Stokes, 25 °C, η ∼1 cP.

One may read the Kd as a measure of binding affinity in units of concentration.

Sequence of [Re]-Y-βC19 peptide (C-terminal tail of beta2) 356-375 (P69924 356-375): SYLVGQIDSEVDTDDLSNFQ

On to `CC(=O)N[C@@H](Cc1cc(F)c(O)c(F)c1)C(N)=O` [Ac-3,5-F2Y-NH2], for which the “pKa of 3,5-F2Y amino acid in solution” value in series [1] was 7.2.
Turning to `CC[C@H](C)[C@H](NC(=O)[C@H](CCC(N)=O)NC(=O)CNC(=O)[C@@H](NC(=O)[C@H](CC(C)C)NC(=O)[C@H](Cc1ccc(O)cc1)NC(=O)c1ccnc(-c2cc(C)ccn2)c1)C(C)C)C(=O)N[C@@H](CC(=O)O)C(=O)N[C@@H](CO)C(=O)N[C@@H](CCC(=O)O)C(=O)N[C@H](C(=O)N[C@@H](CC(=O)O)C(=O)N[C@H](C(=O)N[C@@H](CC(=O)O)C(=O)N[C@@H](CC(=O)O)C(=O)N[C@@H](CC(C)C)C(=O)N[C@@H](CO)C(=O)N[C@@H](CC(N)=O)C(=O)N[C@@H](Cc1ccccc1)C(=O)N[C@@H](CCC(N)=O)C(=O)N[C@@H](CC(C)C)C(=O)O)[C@@H](C)O)C(C)C` [[Re]-Y-βC19], in series [2] (pH 12, bi-exponential fit), the “emission decay lifetime τ1” value is listed as 0.5 ns, the “emission decay lifetime τ2” value is 3.0 ns, the “fraction of emission decay component τ1” value amounted to 86% and the “fraction of emission decay component τ2” value worked out at 14%. Moreover, in series [2] (pH < 10), the “emission lifetime τ” value was found to be 62 ± 2 ns. Also, in series [3], the “diffusion coefficient kd1” value is given as 6.1 × 10^−7 cm^−1 s^–1. For the same molecule, the “change of emission band upon binding to α2” value at α2 is “the emission band blue shifts and increases in intensity”.
As for Re(bpy)(CO)3CN [[Re]], in series [4], the “excited state reduction potential E°” value is reported as 1.59 V vs. NHE.
On to “ribonucleotide reductase alpha2 (from UniProt P00452)”, for which the Kd in series [5] was 20 µM.

B1: Ribonucleotide reductase R1 subunit alpha2 (protein)
chain: MNQNLLVTKRDGSTERINLDKIHRVLDWAAEGLHNVSISQVELRSHIQFYDGIKTSDIHETIIKAAADLISRDAPDYQYLAARLAIFHLRKKAYGQFEPPALYDHVVKMVEMGKYDNHLLEDYTEEEFKQMDTFIDHDRDMTFSYAAVKQLEGKYLVQNRVTGEIYESAQFLYILVAACLFSNYPRETRLQYVKRFYDAVSTFKISLPTPIMSGVRTPTRQFSSCVLIECGDSLDSINATSSAIVKYVSQRAGIGINAGRIRALGSPIRGGEAFHTGCIPFYKHFQTAVKSCSQGGVRGGAATLFYPMWHLEVESLLVLKNNRGVEGNRVRHMDYGVQINKLMYTRLLKGEDITLFSPSDVPGLYDAFFADQEEFERLYTKYEKDDSIRKQRVKAVELFSLMMQERASTGRIYIQNVDHCNTHSPFDPAIAPVRQSNLCLEIALPTKPLNDVNDENGEIALCTLSAFNLGAINNLDELEELAILAVRALDALLDYQDYPIPAAKRGAMGRRTLGIGVINFAYYLAKHGKRYSDGSANNLTHKTFEAIQYYLLKASNELAKEQGACPWFNETTYAKGILPIDTYKKDLDTIANEPLHYDWEALRESIKTHGLRNSTLSALMPSETSSQISNATNGIEPPRGYVSIKASKDGILRQVVPDYEHLHDAYELLWEMPGNDGYLQLVGIMQKFIDQSISANTNYDPSRFPSGKVPMQQLLKDLLTAYKFGVKTLYYQNTRDGAEDAQDDLVPSIQDDGCESGACKI
In the case of B1, in series [6], the Kd was 9 µM.

B2: α2: active site-containing subunit of RNR, E. coli class I, homodimer (protein, UniProt P00452 1-761, looked up)
Ribonucleoside-diphosphate …: B1 chain
Turning to B2, the “diffusion coefficient kd2” value in series [7] (DLS radius 55.8 Å) is 3.9 × 10^−7 cm^2 s^−1; in series [7] (crystal structure radius 40.4 Å), 5.4 × 10^−7 cm^2 s^−1. For the same molecule, the “radius estimated from crystal structure” value in series [7] (eq 5 with d1, d2, d3 = 100.7, 71.4, 73.2 Å) was 40.4 Å.
